According to US20080044412A1, “Single-Domain Antibody Strengthening Fusion Protein Vh-Ldp-Ae” (INSTITUTE OF MEDICINAL BIOTECHNOLOGY CHINESE ACADEMY OF …, priority 2004, published 2008):
Values joined by “and” are separate entries in the source; they are usually repeats but may differ in a detail not shown here. Identical values can stand only once.

Key:
HT-1080 cells = assay: MTT cytotoxicity assay, HT-1080; assay type: cell-based; conditions: 72 h
Method: (§1) MTT assay was used. After digestion and counting, cells in exponential growth phase were seeded at 3000 cells/well in 96-well plates, and cultured at 37° C. in 5% CO2 for 24 hours. Drugs of various concentrations were added with 3 aliquots, and the cells were cultured for another 72 h. 50 μl of MTT (2 mg/ml) in serum-free RPMI 1640 were added into each well, and the cells were cultured at 37° C. for 4 h. Remove the culture medium gently; add 150 μl DMSO each well; incubate at room temperature for 15 min on a shaker; measure the absorbance at 560 nm on a microplate reader. Survival ratio and IC50 values were calculated according to the following equation: Survival ratio=(Atest−Ablank)/(Acontrol−Ablank)×100%.

KB cells = assay: MTT cytotoxicity assay, KB; assay type: cell-based, human; conditions: 72 h
Method: as §1

PG cells = assay: MTT cytotoxicity assay, PG; assay type: cell-based; conditions: 72 h
Method: as §1

transplanted hepatoma 22 = assay: Transplanted hepatoma 22 growth in mice; conditions: for Inhibition rate / Tumor volume x ± s: tail vein, day 14
Method: Kunming mice, weighing between 18-22 g, were randomly separated into different groups of 10 mice each. On day 0, hepatoma 22 cells (1.5×10^6 cells/0.2 ml/mouse) diluted with saline were transplanted subcutaneously into the right axilla of mice. On day 1 (after 24 h), the therapy was started and VH-LDP-AE at different doses, LDM at 0.05 mg/kg, mitomycin (MMC) at 1 mg/kg were administered respectively to the tumor bearing mice (0.2 ml/mouse) by injection into the tail vein. Mice of control group were injected with saline. Diameters of the tumors were measured every 3 days during the experiment. Weights of the mice were recorded. The tumor volumes were calculated with the following formula: V=0.5ab^2, where a and b is the long and the perpendicular short diameters of the tumor, respectively. The curves of tumor growth were plotted and the inhibition rates were calculated.

colon carcinoma 26 = conditions: cited from earlier work
hepatoma Bel-7402 = conditions: nude mice; cited from earlier work
cecum carcinoma Hce-8693 = conditions: nude mice; cited from earlier work
type IV collagenase = assay: ELISA immunoreactivity with type IV collagenase; assay type: binding; conditions: FIG. 4
Method: (§2) Immunoreactivity of fusion protein VH-LDP was detected by ELISA. At first, type IV collagenase or tumor cells was coated or fixed to 96-well ELISA plates: well was coated with 100 μl of type IV collagenase (10 μg/ml, diluted by PBS) and the plates were stored at 4° C. overnight; Human hepatoma SMMC-7721 cells or human KB cells were seeded at 10^4/well in 96-well plates and cultured for 24 h, washed with PBS for 3 times, added 0.05% cold (4° C.) Glutaraldehyde and fixed for 15 min. Then the coated or fixed plates were washed with PBS 3 times, and blocked with 200 μl/well of 1% bovine serum albumin (BSA)/PBS at 4° C. overnight. The plates were washed 3 times with PBS. Then 200 μl of serial concentrations of fusion protein VH-LDP were added into each well of the plates and incubated for 2 hours at 37° C. Washing the plates 3 times with 0.05% Tween 20/PBS (PBST), adding 50 μl of anti-His6-Tag monoclonal antibody diluted 1:1500 to each well, and incubating at 37° C. for 1 h. Washing the plates 3 times with PBST, adding 50 μl of HRP conjugated goat anti-mouse IgG (at 1:2000 dilution), and incubating at 37° C. for 1 hour. Washing the plates with PBST 6 times, adding 100 μl of OPD substrate reaction solution to each well, incubating the plates at room temperature for 10 min in the dark. […] Then the optical density (OD) of each well was measured at 490 nm using a microplate reader.

[1] = tested on: human hepatoma SMMC-7721 cells; assay: ELISA immunoreactivity with fixed SMMC-7721 cells; assay type: binding; conditions: FIG. 5
Method: as §2

[2] = tested on: solid tumor of mouse hepatoma 22; assay: Immunohistochemical (SABC) staining of mouse hepatoma sections; assay type: binding; conditions: FIG. 7
Method: (§3) Immunohistochemical (IHC) staining was performed by streptavidin-biotin-peroxidase complex (SABC) staining with SABC kit (Boster Company). The sections were blocked by normal goat serum for 20 min at room temperature and the excessive liquid was removed. The sections without washing were added with diluted said VH-LDP fusion protein as prepared in example 3 and incubated at room temperature; then diluted anti-His6-tag antibody and biotinylated goat-anti-mouse IgG were added in turn. Finally SABC reagent was added. DAB kit was used as a chromogen for visualized reaction at room temperature. The sections were counter-stained by hematoxylin, dehydrated, cleared, sealed, and observed with microscope.

[3] = tested on: mouse normal liver sections; assay: Immunohistochemical (SABC) staining of mouse normal liver sections; assay type: binding; conditions: FIG. 7
Method: as §3

[4] = tested on: type IV collagenase secreted by HT-1080 cells; assay: Gelatin zymography in HT-1080 cells; assay type: cell-based; conditions: 24 h, 25, 50, 100 μM (FIG. 8), dependent on concentration
Method: Gelatin zymography protocol was used. Exponentially growing HT-1080 cells were seeded at 10^5/well in 24-well plates and incubated at 37° C. in 5% CO2. After 24 h, the culture medium was removed and 1 ml serum-free RPMI 1640 medium was added for washing twice. Add 120 μl of serum-free RPMI 1640 medium and 30 μl of fusion protein VH-LDP as prepared in example 3 to each well, and add 30 μl PBS to control well. Culturing the cells at 37° C. for 24 h. Harvest the culture medium, and centrifuging at 500 g for 5 min. Then take the supernatant for non-denaturalization electrophoresis on SDS-PAGE. Wash the gels with distilled water 3 times. Put the gels into 100 ml of 2.5% TritonX-100, shake on a shaker for 30 min at low speed. Then Wash the gels 2 times with distilled water; repeat the washing process with TritonX-100 above. The gels was washed with distilled water 2 times, and incubated at 37° C. for 16-18 h in 100 ml of gelatinase buffer (50 mM Tris-HCl, pH 7.5, 200 mM NaCl, 10 mM CaCl2, 1 μM ZnCl2). The gels were stained with Coomassie-brilliant blue R-250 and destained with acetic acid: methanol:water (10:45:45). The negative stained bands were observed.

[5] = State of refolded fusion protein in PBS solution; assay type: physicochemical
Method: The inventors attempted to make fusion gene in the form of VH-LDP by fusing VH domain against type IV collagenase to apoprotein LDP of LDM, and then expressing the fusion protein in E. coli.
The fusion protein VH-LDP after purification was refolded: the purified protein was diluted to a final concentration of 15 μM with eluting buffer mentioned above, and β-mercaptoethanol was added to a final concentration of 10 mM. After being stored at room temperature for 30 min, the sample was placed in a dialysis bag and dialyzed against at least 50 vol. of refolding buffer 1 (50 mM Tris-HCl pH 8.0, 1 mM EDTA, 200 mM NaCl, 6 M urea). And the following dialysis was against the same buffer with step-wise reduction in the urea concentration (3M, 2M, 1M, 0.5M, and 0M). On a 1-M stage, 750 μM of glutathione (GSSG) and 400 mM of L-Arginine were added to the dialysis buffer. Then the sample was dialyzed against 50 vol. of PBS solution (pH 7.4). Each dialysis was performed for 12 h and with buffer changed twice. All dialysis was performed at 4° C. After dialysis, the sample was centrifuged at 10,000 g for 30 min at 4° C. and the supernatant was collected. After being condensed, the active fusion protein VH-LDP was obtained and stored at −20° C. for later use.

[6] = tested on: bFGF-stimulated angiogenesis; assay: Chick embryo allantoic membrane (CAM) anti-angiogenesis assay; assay type: in vivo; conditions: 72 h, 0.5 μg/egg (FIG. 10)
Method: Anti-angiogenic activity of VH-LDP-AE was examined in chick embryoallantoic membrane assay (CAM). The surface of 7-day-old post-fertilization chick eggs (White Leghorn) in a 60% humidified incubator at 37° C. was sterilized and the CAM was […]) exposed by cutting a window (2 cm^2) on the egg shell using the false air-sac technique. After 24 h, 10 μl of bFGF was dipply added to agarose disks with the energized fusion protein VH-LDP-AE at various concentrations which was prepared as mentioned in Example 7, and then the disks were placed on top of the CAM. After the windows were sealed with transparent tape, the eggs were incubated for further 72 h.

[7] = tested on: human colon carcinoma HT-29 cells; assay: MTT combination assay on HT-29 cells (CDI); assay type: cell-based; conditions: HT-29, MTT
Method: MTT assay was used. After trypsin-EDTA digestion, the human colon carcinoma HT-29 cells in exponential growth were seeded at 4000 cells/well in 96-well plates, and cultured for 24 hours. Then add 20 μl of different concentrations of hydroxylcamptothecin or 5-fluorouracil; 8 hours later, add different concentrations of VH-LDP-AE. Continue to culture the cells at 37° C. in 5% CO2 for 72 h. Add 50 μl of MTT at concentration of 2 mg/ml, culture the cells at 37° C. for 4 hours. Then remove the supernatant; add 150 μl DMSO each well; ten minutes later, measure the absorbance at 560 nm on a microplate reader. In cancer pharmacology, interactions of drug combination were evaluated by coefficient of drug interaction (CDI). There existed synergistic effects with CDI<1, and there existed very significant ones with CDI<0.7. […] It was usual that monoclonal antibodies were combined with anti-cancer drugs.

Molecule lidamycin [LDM] has an IC50 (HT-1080 cells) of 2.21 pM, an IC50 (KB cells) of 1.08 pM and an IC50 (PG cells) of 6.3 pM. The Inhibition rate (transplanted hepatoma 22; 0.05 mg/kg) was 79.6% and 79.6^ΔΔ %, the “Tumor volume x ± s” value (transplanted hepatoma 22; 0.05 mg/kg) was 0.94 ± 0.53 cm^3 and the maximal tolerated dose (transplanted hepatoma 22; mice) was 0.05 mg/kg. The “growth of colon carcinoma 26 in mice” value (colon carcinoma 26) was “remarkably inhibited”, the “growth of human cancer xenograft hepatoma Bel-7402” value (hepatoma Bel-7402) was “potent inhibitory effect” and the “growth of human cancer xenograft cecum carcinoma Hce-8693” value (cecum carcinoma Hce-8693) was “potent inhibitory effect”.

For CO[C@@]12[C@H](COC(N)=O)C3=C(C(=O)C(C)=C(N)C3=O)N1C[C@@H]1N[C@@H]12 [MMC, mitomycin], the Body weight begin (transplanted hepatoma 22; 1 mg/kg, begin) was 18.82 g, the Body weight end (transplanted hepatoma 22; 1 mg/kg, end (day 14)) was 29.29 g and the Inhibition rate (transplanted hepatoma 22; 1 mg/kg) was 51.5^Δ %. The “Tumor volume x ± s” value (transplanted hepatoma 22; 1 mg/kg) was 2.23 ± 2.15 cm^3 and the Inhibition rate (transplanted hepatoma 22; 1 mg/kg, listed as mitomycin) was 51.5%.

B1: VH-LDP: VH domain of anti-type IV collagenase mAb 3G11, GGGGS spacer, lidamycin apoprotein LDP and His6-Tag; SEQ ID NO: 2 (protein)
chain: MQVKLQQSGTEVVKPGASVKLSCKASGYIFTSYDIDWVRQTPEQGLEWIGWIFPGEGSTEYNEKFKGRATLSVDKSSSTAYMELTRLTSEDSAVYFCARGDYYRRYFDLWGQGTTVTVSSGGGGSAPAFSVSPASGLSDGQSVSVSVSGAAAGETYYIAQCAPVGGQDACNPATATSFTTDASGAASFSFVVRKSYTGSTPEGTPVGSVDCATAACNLGAGNSGLDLGHVALTFGLEHHHHHH
modifications: fusion protein of Vh and LDP
In the case of B1, the “binding activity to type IV collagenase” value (type IV collagenase) is reported as “positive”, the “binding activity to human hepatoma SMMC-7721 cells” value [1] is reported as “positive” and the “immunohistochemical staining in mouse hepatoma sections” value [2] is reported as “positively stained”. The “immunohistochemical staining in mouse normal liver sections” value [3] was “negatively stained”, the “inhibition of type IV collagenase activity secreted by cancer cells” value [4] was “inhibit significantly” and the solubility after refolding [5] was “soluble in PBS solution”. For the same molecule, the “fraction existing in monomer state” value ([5]; after refolding) was 75%.

B2: VH-LDP-AE (conjugate)
chain: MQVKLQQSGTEVVKPGASVKLSCKASGYIFTSYDIDWVRQTPEQGLEWIGWIFPGEGSTEYNEKFKGRATLSVDKSSSTAYMELTRLTSEDSAVYFCARGDYYRRYFDLWGQGTTVTVSSGGGGSAPAFSVSPASGLSDGQSVSVSVSGAAAGETYYIAQCAPVGGQDACNPATATSFTTDASGAASFSFVVRKSYTGSTPEGTPVGSVDCATAACNLGAGNSGLDLGHVALTFGLEHHHHHH
modifications: AE chromophore assembled; fusion protein of Vh and LDP
For B2, the “suppression of angiogenesis stimulated by bFGF” value [6] was “significantly suppress angiogenesis”, the Inhibition rate (transplanted hepatoma 22; 0.125 mg/kg) was 88.1% and 88.1*^ΔΔ % and the “Tumor volume x ± s” value (transplanted hepatoma 22; 0.125 mg/kg) was 0.55 ± 0.24 cm^3. For the same molecule, the Inhibition rate (transplanted hepatoma 22; 0.25 mg/kg) was 95.9% and 95.9**^ΔΔ %, the “Tumor volume x ± s” value (transplanted hepatoma 22; 0.25 mg/kg) was 0.19 ± 0.21 cm^3 and the “effect on growth of hepatoma 22 in mice” value (transplanted hepatoma 22; both 0.25 mg/kg and 0.125 mg/kg, more potent than free lidamycin 0.05 mg/kg (FIG. 11)) was “inhibited or retarded the growth”. For the same molecule, the “body weight loss and side-effects during the experiments” value (transplanted hepatoma 22; mouse, in vivo) was “No body weight loss and other severe side-effects were found”, the “coefficient of drug interaction (CDI)” value ([7]; 10 μM of 5-fluorouracil plus 3 ng/ml of VH-LDP-AE) was less than 0.7 and the “coefficient of drug interaction (CDI)” value ([7]; hydroxylcamptothecin (1 μM) plus VH-LDP-AE (3 ng/ml)) was less than 0.7.
